In the supplement of paper PMC9112550, “Optimization of the antimicrobial peptide Bac7 by deep mutational scanning” (BMC Biology, 2022):

Tested on: Escherichia coli TOP10
Assay: shrunken log2 fold change of peptide-encoding DNA abundance (4.5 h post-induction vs induction); higher = less antimicrobial activity (less host growth inhibition)
Conditions: time post-induction: 4.5 h; library: site-saturation at positions 5, 18, 19, 20
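Also: peptides expressed intracellularly from a pBAD plasmid library in pooled LB shake-flask culture, induced with 0.3% L-arabinose, DNA abundance read by NGS, three biological replicates, DESeq2 with apeglm shrinkage.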

RRIRVRPPRLPRPRPRPKFMPRP
shrunken log2 fold change: -0.0954

RRIRWRPPRLPRPRPRPKHVPRP
shrunken log2 fold change: 0.254

RRIRLRPPRLPRPRPRPQDQPRP
shrunken log2 fold change: 0.14

RRIRWRPPRLPRPRPRPDNMPRP
shrunken log2 fold change: -0.0443

RRIRMRPPRLPRPRPRPHMVPRP
shrunken log2 fold change: -0.0116

RRIRGRPPRLPRPRPRPCLAPRP
shrunken log2 fold change: 0.599

RRIRARPPRLPRPRPRPMPEPRP
shrunken log2 fold change: 0.18

RRIRVRPPRLPRPRPRPPFNPRP
shrunken log2 fold change: -0.303

RRIRSRPPRLPRPRPRPTWMPRP
shrunken log2 fold change: 0.0331

RRIRWRPPRLPRPRPRPRAVPRP
shrunken log2 fold change: 0.521

RRIRKRPPRLPRPRPRPQRFPRP
shrunken log2 fold change: -0.00315

RRIRARPPRLPRPRPRPAALPRP
shrunken log2 fold change: 0.805

RRIRHRPPRLPRPRPRPGSGPRP
shrunken log2 fold change: 0.0563

RRIRWRPPRLPRPRPRPYFCPRP
shrunken log2 fold change: -0.298

RRIRKRPPRLPRPRPRPYIVPRP
shrunken log2 fold change: -0.404

RRIRVRPPRLPRPRPRPMPGPRP
shrunken log2 fold change: 0.18

RRIRRRPPRLPRPRPRPGGSPRP
shrunken log2 fold change: 0.0293

RRIRHRPPRLPRPRPRPDNAPRP
shrunken log2 fold change: -0.34

RRIRARPPRLPRPRPRPAIVPRP
shrunken log2 fold change: -0.123

RRIRVRPPRLPRPRPRPPFRPRP
shrunken log2 fold change: 0.421

RRIRQRPPRLPRPRPRPYFRPRP
shrunken log2 fold change: -0.368

RRIRHRPPRLPRPRPRPFNKPRP
shrunken log2 fold change: -0.01

RRIRERPPRLPRPRPRPMGVPRP
shrunken log2 fold change: 0.22

RRIRKRPPRLPRPRPRPHPTPRP
shrunken log2 fold change: 0.431

RRIRARPPRLPRPRPRPIRIPRP
shrunken log2 fold change: 0.0541

RRIRVRPPRLPRPRPRPGVLPRP
shrunken log2 fold change: 0.0138

RRIRTRPPRLPRPRPRPGEIPRP
shrunken log2 fold change: -0.26

RRIRWRPPRLPRPRPRPSCEPRP
shrunken log2 fold change: 0.19

RRIRERPPRLPRPRPRPGANPRP
shrunken log2 fold change: 0.0574

RRIRDRPPRLPRPRPRPCTTPRP
shrunken log2 fold change: -0.00176

RRIRMRPPRLPRPRPRPNYDPRP
shrunken log2 fold change: -0.149

RRIRVRPPRLPRPRPRPSHYPRP
shrunken log2 fold change: -0.68

RRIRKRPPRLPRPRPRPHIIPRP
shrunken log2 fold change: 0.0119

RRIRMRPPRLPRPRPRPANDPRP
shrunken log2 fold change: 0.0988

RRIRSRPPRLPRPRPRPRNYPRP
shrunken log2 fold change: -0.465

RRIRCRPPRLPRPRPRPVFQPRP
shrunken log2 fold change: -0.0498

RRIRWRPPRLPRPRPRPLWSPRP
shrunken log2 fold change: -0.13

RRIRLRPPRLPRPRPRPGYPPRP
shrunken log2 fold change: -0.361

RRIRTRPPRLPRPRPRPASVPRP
shrunken log2 fold change: 0.00118

RRIRIRPPRLPRPRPRPCPHPRP
shrunken log2 fold change: -0.143

RRIRLRPPRLPRPRPRPNTQPRP
shrunken log2 fold change: -0.0732

RRIRQRPPRLPRPRPRPWAKPRP
shrunken log2 fold change: -0.000896

RRIRWRPPRLPRPRPRPEAPPRP
shrunken log2 fold change: 1.01

RRIRYRPPRLPRPRPRPLVTPRP
shrunken log2 fold change: -0.616

RRIRNRPPRLPRPRPRPMFTPRP
shrunken log2 fold change: -0.211

RRIRRRPPRLPRPRPRPSGSPRP
shrunken log2 fold change: -0.0977

RRIRDRPPRLPRPRPRPFPSPRP
shrunken log2 fold change: -0.0268

RRIRDRPPRLPRPRPRPQKGPRP
shrunken log2 fold change: 0.00967

RRIRDRPPRLPRPRPRPQQKPRP
shrunken log2 fold change: -0.14

RRIRDRPPRLPRPRPRPHWFPRP
shrunken log2 fold change: 0.0318

RRIRWRPPRLPRPRPRPHPYPRP
shrunken log2 fold change: -0.195

RRIRNRPPRLPRPRPRPANGPRP
shrunken log2 fold change: 0.0343

RRIRSRPPRLPRPRPRPQYSPRP
shrunken log2 fold change: -0.165

RRIRERPPRLPRPRPRPILGPRP
shrunken log2 fold change: -0.197

RRIRPRPPRLPRPRPRPDVGPRP
shrunken log2 fold change: 0.181

RRIRFRPPRLPRPRPRPWKLPRP
shrunken log2 fold change: -0.0164

RRIRDRPPRLPRPRPRPGFHPRP
shrunken log2 fold change: 0.0294

RRIRQRPPRLPRPRPRPHLMPRP
shrunken log2 fold change: 0.106

RRIRERPPRLPRPRPRPRFQPRP
shrunken log2 fold change: 0.2

RRIRHRPPRLPRPRPRPFNVPRP
shrunken log2 fold change: 1.22

RRIRQRPPRLPRPRPRPKSCPRP
shrunken log2 fold change: 0.000945

RRIRSRPPRLPRPRPRPTSMPRP
shrunken log2 fold change: -0.187

RRIRYRPPRLPRPRPRPRSYPRP
shrunken log2 fold change: -0.879

RRIRRRPPRLPRPRPRPCISPRP
shrunken log2 fold change: -0.0399

RRIRFRPPRLPRPRPRPGEHPRP
shrunken log2 fold change: -0.0294

RRIRMRPPRLPRPRPRPSHWPRP
shrunken log2 fold change: 0.0911

RRIRVRPPRLPRPRPRPYYRPRP
shrunken log2 fold change: -0.309

RRIRMRPPRLPRPRPRPPHQPRP
shrunken log2 fold change: 0.634

RRIRARPPRLPRPRPRPQYKPRP
shrunken log2 fold change: -0.303

RRIRKRPPRLPRPRPRPMSHPRP
shrunken log2 fold change: -0.0712

RRIRVRPPRLPRPRPRPEVQPRP
shrunken log2 fold change: 0.148

RRIRVRPPRLPRPRPRPMHMPRP
shrunken log2 fold change: -0.164

RRIRWRPPRLPRPRPRPIHRPRP
shrunken log2 fold change: -0.0434

RRIRERPPRLPRPRPRPMPLPRP
shrunken log2 fold change: 0.000847

RRIRFRPPRLPRPRPRPMLDPRP
shrunken log2 fold change: -0.365

RRIRSRPPRLPRPRPRPETKPRP
shrunken log2 fold change: 0.187

RRIRHRPPRLPRPRPRPRQTPRP
shrunken log2 fold change: 0.0257

RRIRNRPPRLPRPRPRPSENPRP
shrunken log2 fold change: -0.296

RRIRFRPPRLPRPRPRPGISPRP
shrunken log2 fold change: -0.0961

RRIRYRPPRLPRPRPRPDGLPRP
shrunken log2 fold change: -0.528

RRIRTRPPRLPRPRPRPFQQPRP
shrunken log2 fold change: 0.0654

RRIRKRPPRLPRPRPRPSVYPRP
shrunken log2 fold change: -0.0427

RRIRPRPPRLPRPRPRPFMNPRP
shrunken log2 fold change: -0.198

RRIRQRPPRLPRPRPRPKGDPRP
shrunken log2 fold change: 0.00911

RRIRKRPPRLPRPRPRPLSEPRP
shrunken log2 fold change: 0.251

RRIRRRPPRLPRPRPRPPWSPRP
shrunken log2 fold change: 0.421

RRIRYRPPRLPRPRPRPCACPRP
shrunken log2 fold change: 0.0891

RRIRPRPPRLPRPRPRPYRYPRP
shrunken log2 fold change: 0.101

RRIRDRPPRLPRPRPRPQYCPRP
shrunken log2 fold change: -0.207

RRIRPRPPRLPRPRPRPVRKPRP
shrunken log2 fold change: 0.73

RRIRHRPPRLPRPRPRPIDFPRP
shrunken log2 fold change: 0.0271

RRIRKRPPRLPRPRPRPRYKPRP
shrunken log2 fold change: 0.15

RRIRLRPPRLPRPRPRPTIMPRP
shrunken log2 fold change: -0.334

RRIRMRPPRLPRPRPRPYCFPRP
shrunken log2 fold change: -0.28

RRIRYRPPRLPRPRPRPLWKPRP
shrunken log2 fold change: -0.0695

RRIRPRPPRLPRPRPRPICKPRP
shrunken log2 fold change: -0.081

RRIRMRPPRLPRPRPRPWCGPRP
shrunken log2 fold change: 0.134

RRIRGRPPRLPRPRPRPGPTPRP
shrunken log2 fold change: 1.51

RRIRLRPPRLPRPRPRPDHHPRP
shrunken log2 fold change: -0.769

RRIRMRPPRLPRPRPRPEAAPRP
shrunken log2 fold change: 3.45

RRIRMRPPRLPRPRPRPEVCPRP
shrunken log2 fold change: 0.0476

RRIRLRPPRLPRPRPRPEKVPRP
shrunken log2 fold change: -0.0389

RRIRGRPPRLPRPRPRPQTNPRP
shrunken log2 fold change: 0.433

RRIRYRPPRLPRPRPRPCSNPRP
shrunken log2 fold change: -0.00822

RRIRVRPPRLPRPRPRPCVQPRP
shrunken log2 fold change: 0.0444

RRIRRRPPRLPRPRPRPACMPRP
shrunken log2 fold change: 0.479

RRIRTRPPRLPRPRPRPQHCPRP
shrunken log2 fold change: -0.0947

RRIRTRPPRLPRPRPRPEQLPRP
shrunken log2 fold change: 0.117

RRIRKRPPRLPRPRPRPTHWPRP
shrunken log2 fold change: 0.796

RRIRPRPPRLPRPRPRPHIRPRP
shrunken log2 fold change: -0.0938

RRIRVRPPRLPRPRPRPFAMPRP
shrunken log2 fold change: -0.252

RRIRSRPPRLPRPRPRPCKYPRP
shrunken log2 fold change: -0.0911

RRIRVRPPRLPRPRPRPCLLPRP
shrunken log2 fold change: -0.072

RRIRWRPPRLPRPRPRPECQPRP
shrunken log2 fold change: -0.0508

RRIRLRPPRLPRPRPRPHVAPRP
shrunken log2 fold change: 0.0259

RRIRMRPPRLPRPRPRPEKDPRP
shrunken log2 fold change: 2.62

RRIRRRPPRLPRPRPRPEDPPRP
shrunken log2 fold change: 0.192

RRIRRRPPRLPRPRPRPYWVPRP
shrunken log2 fold change: 0.0443

RRIRLRPPRLPRPRPRPPHIPRP
shrunken log2 fold change: 0.0882

RRIRYRPPRLPRPRPRPHALPRP
shrunken log2 fold change: -0.656

RRIRVRPPRLPRPRPRPVARPRP
shrunken log2 fold change: 0.223

RRIRCRPPRLPRPRPRPFHKPRP
shrunken log2 fold change: -0.0775

RRIRLRPPRLPRPRPRPINVPRP
shrunken log2 fold change: -0.54

RRIRNRPPRLPRPRPRPCFDPRP
shrunken log2 fold change: -0.0482

RRIRHRPPRLPRPRPRPNYMPRP
shrunken log2 fold change: -0.0657

RRIRRRPPRLPRPRPRPDCTPRP
shrunken log2 fold change: 0.252

RRIRDRPPRLPRPRPRPTKVPRP
shrunken log2 fold change: -0.274

RRIRNRPPRLPRPRPRPLKAPRP
shrunken log2 fold change: -0.0472

RRIRFRPPRLPRPRPRPLPYPRP
shrunken log2 fold change: -0.101

RRIRQRPPRLPRPRPRPIVQPRP
shrunken log2 fold change: -0.0505

RRIRDRPPRLPRPRPRPNHWPRP
shrunken log2 fold change: 0.0735

RRIRARPPRLPRPRPRPRARPRP
shrunken log2 fold change: 0.911

RRIRCRPPRLPRPRPRPDWGPRP
shrunken log2 fold change: -0.134

RRIRDRPPRLPRPRPRPTSCPRP
shrunken log2 fold change: 0.037

RRIRIRPPRLPRPRPRPDWSPRP
shrunken log2 fold change: -0.161

RRIRRRPPRLPRPRPRPVDEPRP
shrunken log2 fold change: 0.0882

RRIRWRPPRLPRPRPRPWHWPRP
shrunken log2 fold change: -0.101

RRIRRRPPRLPRPRPRPCHGPRP
shrunken log2 fold change: -0.589

RRIRDRPPRLPRPRPRPNMEPRP
shrunken log2 fold change: 0.0616

RRIRVRPPRLPRPRPRPKQDPRP
shrunken log2 fold change: -0.266

RRIRQRPPRLPRPRPRPDRKPRP
shrunken log2 fold change: -0.085

RRIRMRPPRLPRPRPRPVGYPRP
shrunken log2 fold change: 0.515

RRIRGRPPRLPRPRPRPLILPRP
shrunken log2 fold change: 0.203

RRIRQRPPRLPRPRPRPFWSPRP
shrunken log2 fold change: -0.00402

RRIRYRPPRLPRPRPRPLGPPRP
shrunken log2 fold change: 0.157

RRIRERPPRLPRPRPRPDPCPRP
shrunken log2 fold change: -0.119

RRIRSRPPRLPRPRPRPQQLPRP
shrunken log2 fold change: -0.0917

RRIRNRPPRLPRPRPRPVPAPRP
shrunken log2 fold change: 0.459

RRIRHRPPRLPRPRPRPTLEPRP
shrunken log2 fold change: 0.319

RRIRMRPPRLPRPRPRPNPHPRP
shrunken log2 fold change: 0.269
